Experimental data from publication PMC4601640, “Stability of the Human Hsp90-p50^Cdc37 Chaperone Complex against Nucleotides and Hsp90 Inhibitors, and the Influence of Phosphorylation by Casein Kinase 2” (Molecules, 2015).
“Also recorded” adds a separate entry of the source.

Key:
[1] = biological target: human full-length Hsp90β (human) (UniProt P08238); assay: SEC; analytical Superdex200 10/300 GL, room temperature, 0.3 mL/min; 85 µM protein in 50 mM HEPES pH 7.5, 50 mM KCl, 5 mM MgCl2, 1 mM DTT; fractions on SDS-PAGE
[2] = biological target: Hsp90β (UniProt P08238); assay: ELISA on immobilized GST-p50Cdc37, nucleotide dose-response; conditions: sites S13
[3] = biological target: p50Cdc37 1-378 (UniProt Q16543); assay: as above; conditions: for other: IC50 of ADP against complex: ADP titration; for other: IC50 of ATP against complex: ATP titration
[4] = biological target: Hsp82 (Saccharomyces cerevisiae) (UniProt P02829); conditions: cited from earlier work
[5] = reference: unphosphorylated Hsp90β, sites S226,S255
[6] = reference: both proteins unphosphorylated, sites S226,S255,S13

Chain of Hsp82 (Saccharomyces cerevisiae) (P02829 whole entry): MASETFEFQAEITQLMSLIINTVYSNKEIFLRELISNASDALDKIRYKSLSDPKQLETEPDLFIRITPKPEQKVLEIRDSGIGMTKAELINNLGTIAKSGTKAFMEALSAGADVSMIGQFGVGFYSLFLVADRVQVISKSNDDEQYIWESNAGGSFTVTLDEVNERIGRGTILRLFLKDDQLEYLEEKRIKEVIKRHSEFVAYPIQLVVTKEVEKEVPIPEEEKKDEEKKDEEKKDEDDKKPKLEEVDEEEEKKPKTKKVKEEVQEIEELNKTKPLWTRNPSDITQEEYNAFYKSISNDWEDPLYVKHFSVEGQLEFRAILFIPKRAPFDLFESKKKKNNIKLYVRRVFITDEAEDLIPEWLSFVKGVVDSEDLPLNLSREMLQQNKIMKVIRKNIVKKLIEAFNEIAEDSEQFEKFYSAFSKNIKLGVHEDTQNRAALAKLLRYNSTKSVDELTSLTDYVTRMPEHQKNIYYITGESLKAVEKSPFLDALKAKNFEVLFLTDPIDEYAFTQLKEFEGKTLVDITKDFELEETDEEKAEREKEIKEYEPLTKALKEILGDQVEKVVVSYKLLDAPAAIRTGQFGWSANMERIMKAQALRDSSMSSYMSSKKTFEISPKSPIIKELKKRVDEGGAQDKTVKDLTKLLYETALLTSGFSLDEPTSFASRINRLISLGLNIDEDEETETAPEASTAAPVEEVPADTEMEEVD
Chain of p50Cdc37 (Q16543 whole entry): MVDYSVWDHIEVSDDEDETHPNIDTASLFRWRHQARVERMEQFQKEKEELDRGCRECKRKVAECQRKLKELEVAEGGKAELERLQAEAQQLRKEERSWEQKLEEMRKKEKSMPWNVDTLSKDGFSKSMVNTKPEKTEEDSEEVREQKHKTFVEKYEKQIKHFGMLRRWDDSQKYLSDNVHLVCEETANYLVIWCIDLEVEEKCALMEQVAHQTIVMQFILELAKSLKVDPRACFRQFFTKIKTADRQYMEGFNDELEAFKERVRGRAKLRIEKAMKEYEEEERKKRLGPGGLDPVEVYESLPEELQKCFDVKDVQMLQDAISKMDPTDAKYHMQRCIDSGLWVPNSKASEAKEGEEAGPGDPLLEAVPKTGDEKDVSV
Chain of human full-length Hsp90β, P08238 1-724 (natural protein; other documents disagree on this pair) (P08238 whole entry): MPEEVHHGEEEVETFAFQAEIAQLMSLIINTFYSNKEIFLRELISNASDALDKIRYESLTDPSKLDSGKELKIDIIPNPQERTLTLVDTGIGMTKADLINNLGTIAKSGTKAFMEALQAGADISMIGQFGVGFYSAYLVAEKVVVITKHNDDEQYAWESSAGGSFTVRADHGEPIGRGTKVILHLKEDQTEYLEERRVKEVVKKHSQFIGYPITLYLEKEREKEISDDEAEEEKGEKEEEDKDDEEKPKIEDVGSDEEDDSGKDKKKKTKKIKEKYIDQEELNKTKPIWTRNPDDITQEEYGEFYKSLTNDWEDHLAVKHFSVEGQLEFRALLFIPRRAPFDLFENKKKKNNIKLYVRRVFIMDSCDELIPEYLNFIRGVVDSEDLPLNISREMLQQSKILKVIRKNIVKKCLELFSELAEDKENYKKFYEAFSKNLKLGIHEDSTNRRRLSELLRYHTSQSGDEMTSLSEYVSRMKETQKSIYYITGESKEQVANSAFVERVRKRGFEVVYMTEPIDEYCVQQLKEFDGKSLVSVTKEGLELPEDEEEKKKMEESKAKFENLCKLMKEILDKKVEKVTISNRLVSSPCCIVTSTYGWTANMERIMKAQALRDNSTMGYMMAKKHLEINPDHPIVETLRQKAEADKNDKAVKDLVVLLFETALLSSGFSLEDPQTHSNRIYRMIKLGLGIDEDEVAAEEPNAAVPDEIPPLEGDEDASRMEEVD

## human full-length Hsp90β, P08238 1-724 (natural protein; other documents disagree on this pair)
[1]
  stoichiometry N: 2

## p50Cdc37 1-378 (from UniProt Q16543) CK2α-phosphorylated p50Cdc37, ADP titration
[2]; reference: unphosphorylated p50Cdc37, ADP titration
  other: IC50 of ADP against complex: weaker; reference 500 ± 94; also recorded: weaker; reference 220 ± 24

## Hsp90β (from UniProt P08238) CK2α-phosphorylated Hsp90β, ADP titration
[3]; [5]
  other: IC50 of ADP against complex: weaker; reference 500 ± 94; also recorded: weaker; reference 270 ± 35

## Hsp90β (from UniProt P08238) both proteins CK2α-phosphorylated, ADP titration
[3]; [6]
  other: IC50 of ADP against complex: weaker; reference 500 ± 94

## p50Cdc37 1-378 (from UniProt Q16543) CK2α-phosphorylated p50Cdc37, ATP titration
[2]; reference: unphosphorylated p50Cdc37, ATP titration
  other: IC50 of ATP against complex: same; reference >1000

## p50Cdc37 (from UniProt Q16543)
[4]
  Kd: 1460 nM

## Hsp90β (from UniProt P08238) both proteins CK2α-phosphorylated, ATP titration
[3]; [6]
  other: IC50 of ATP against complex: weaker; reference >1000

## Hsp90β (from UniProt P08238) CK2α-phosphorylated Hsp90β, ATP titration
[3]; [5]
  other: IC50 of ATP against complex: weaker; reference >1000
